Here are results for two molecules from patent publication US20210079109A1 (Regeneron, published 2021).

For experiment [1], the target named is T1, human CD63 (human, UniProt P08962 2-238).
T1 sequence: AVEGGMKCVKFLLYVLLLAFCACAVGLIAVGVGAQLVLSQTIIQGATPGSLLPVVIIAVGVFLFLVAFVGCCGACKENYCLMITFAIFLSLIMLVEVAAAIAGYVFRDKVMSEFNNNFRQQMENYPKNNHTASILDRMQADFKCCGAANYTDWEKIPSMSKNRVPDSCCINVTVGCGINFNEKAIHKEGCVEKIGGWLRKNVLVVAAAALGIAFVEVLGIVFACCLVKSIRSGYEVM
Put plainly: cell-based or functional assay.

The target of experiment [2] is T1, human CD63. Put plainly: imaging of stained T47D cells, 10 ug/mL antibody. How it is done:
To stain, quadruplicate plates of cells were incubated with 10 μg/mL of anti-CD63 antibodies that was diluted in 2% FBS in PBS, without Calcium and Magnesium (Irving, Cat #9240) (staining buffer) for 30 minutes at 4° C. […] Two plates were immediately fixed and stained with 4% paraformaldehyde (PFA; ThermoFisher, Cat #28908)+5 uM DRAQ5 (ThermoFisher, Cat #62251) in PBS for 20 minutes (non-internalization plates). The remaining two plates were incubated with growth media at 37° C. for 2 hours followed by fixation and staining for 20 minutes using a solution of 4% PFA+5 μM DRAQ5 diluted in PBS (internalization plates). After fixation, all plates were washed once with PBS. One non-internalization plate and one internalization plate were incubated with an anti-Alexa Fluor 488 antibody (Regeneron) at 50 μg/mL in PBS overnight at 4° C. to quench surface Alexa Fluor 488 fluorescence. The remaining plates were incubated with PBS only. Confocal images were acquired on the Opera Phenix (Perkin Elmer) at 40× magnification. Harmony analysis software (Perkin Elmer) was utilized to identify DRAQ5-labeled cells and the total Alexa-Fluor 488 relative fluorescent units (RFU) per cell was determined. The total binding at 4° C. (RFU values of 4° C. unquenched wells), total binding at 37° C. (RFU values of 37° C. unquenched wells), the total internalized RFU, and the % Internalization were determined for each antibody as shown in Table 1. For all calculations, background fluorescence from 2nd Ab only control wells were subtracted from every well. Total internalized RFU was calculated as follows: Total RFU of 37° C. unquenched samples−Surface RFU at 37° C. Surface RFU is defined as unquenched RFU at 37° C.−quenched RFU at 37° C.)/QE. QE (quenching efficiency) is defined as: 1−(Total RFU of 4° C. quenched sample/Total RFU of 4° C. unquenched sample). The % Internalization was determined from the following formula: (Total internalized RFU at 37° C./Total RFU at 37° C.)*100.

Experiment [3] concerns the target T2, recombinant human CD63 extracellular loop 2 expressed with a C-terminal Myc-Myc-hexahistidine (human).
T2 construct: also called hCD63 EC loop 2-MMH; human CD63 EC loop 2-MMH
Put plainly: SPR Biacore, mAb captured, 25C. A digest of the protocol: (§1)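 Anti-CD63 mAbs captured on anti-mouse Fc or anti-human Fab surfaces; CD63 EC2 reagents flowed in HBS-ET, pH 7.4, at 25° C or 37° C. ka and kd from 1:1 binding model with mass transport limitation; KD and t½ calculated from kinetic rates.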

The target in experiment [4] is T3, recombinant human CD63 extracellular loop 2 expressed with a C-terminal human Fc tag (human).
T3 construct: also called hCD63 EC loop 2-hFc; human CD63 EC loop 2-Fc
Briefly: SPR Biacore, mAb captured, 25C. The method, boiled down: as §1

Experiment [5] deals with T2, recombinant human CD63 extracellular …. Put plainly: SPR Biacore, mAb captured, 37C. A digest of the protocol: as §1
In general terms: SPR reads the build-up and loss of mass on a sensor chip optically.

Experiment [6] concerns the target T3, recombinant human CD63 extracellular …. Put plainly: SPR Biacore, mAb captured, 37C. A digest of the protocol: as §1
Experiment [7] deals with T1, human CD63. Briefly: ECL, NIH3T3/hCD63 cells; NIH3T3/hCD63 cells, ratio at 3.7 nM Ab: binds. How it is done: (§2) LNCAP cells were determined to have a lower human CD63 copy number than U87MG cells. Non-transfected NIH3T3 cells, which have no detectable expression of human CD63 by fluorescence activated cell sorting (FACS), were included as a negative control.
(§3) Briefly, cell lines were rinsed once in PBS buffer without Ca²⁺/Mg²⁺ and incubated for 10 minutes at 37° C. with Enzyme Free Cell Dissociation Solution (Millipore, Cat #S-004-C) to detach the cells. Cells were then washed once with PBS with Ca²⁺/Mg²⁺ and counted with a Cellometer™ Auto T4 cell counter (Nexcelom Bioscience, LLC). Approximately 2.0×10⁴ NIH3T3/hCD63, LNCAP, U87MG or NIH3T3 cells were seeded separately onto 96-well carbon electrode plates […]) and were then incubated for one hour at 37° C. Nonspecific binding sites were blocked with 2% BSA (w/v) in PBS with Ca²⁺/Mg²⁺ for one hour at room temperature (RT). […] Plates were washed and then incubated with Read Buffer (MSD, Cat #R92TD-2) according to the manufacturer's instructions. Luminescent signals were measured using a SECTOR Imager (MSD).

Experiment [8] deals with T1, human CD63. Briefly: ECL, NIH3T3/hCD63 cells; NIH3T3/hCD63 cells (engineered, CD63 overexpressed): binds. How it is done: as §2, §3
Experiment [9] deals with T1, human CD63. Put plainly: ECL, LNCAP cells; LNCAP cells (lower CD63 copy number), ratio at 3.7 nM Ab: non-binder. The protocol: as §2, §3
Experiment [10] deals with T1, human CD63. Put plainly: ECL, U87MG cells; U87MG cells (endogenous CD63), ratio at 3.7 nM Ab: binds, EC50 inconclusive. The protocol: as §2, §3

T2 sequence (chain, as listed by the source limits assumed): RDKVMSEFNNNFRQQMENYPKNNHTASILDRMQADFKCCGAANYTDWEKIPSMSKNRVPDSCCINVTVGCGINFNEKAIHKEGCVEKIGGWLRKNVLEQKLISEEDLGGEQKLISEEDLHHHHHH
T3 sequence (chain, as listed by the source limits assumed): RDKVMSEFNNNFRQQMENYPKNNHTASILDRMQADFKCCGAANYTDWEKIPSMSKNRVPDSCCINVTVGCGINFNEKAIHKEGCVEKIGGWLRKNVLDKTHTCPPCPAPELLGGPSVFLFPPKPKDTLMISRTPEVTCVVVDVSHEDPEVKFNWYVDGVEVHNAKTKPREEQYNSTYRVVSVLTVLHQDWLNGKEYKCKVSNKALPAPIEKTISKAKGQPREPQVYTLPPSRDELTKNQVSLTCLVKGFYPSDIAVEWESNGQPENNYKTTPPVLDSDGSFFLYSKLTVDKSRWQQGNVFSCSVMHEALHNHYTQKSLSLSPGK

B1: H4H12450N (antibody, V domains shown)
VH: QVQLQESGPKVVKPSETLSLTCTVSGGSISSYYWNWIRQSPGKGLEWIGYTKRGYTDYNPSLRSRVTISEDTSKNQFSLRISSVTAADTAVYYCAQMGWGSHAFDMWGQGTMVAVSS
VL: not shown
On to B1, for which, in the experiment with human CD63 [1], the “% Internalization, T47D cells” value was determined as 68.1% and the “Total Internalized RFU, T47D cells” value stood at 1.42e+06 RFU. Further, in the experiment with human CD63 [2], the “Total RFU at 4C” value is 2.1e+06 RFU and the “Total RFU at 37C (2 h)” value was found to be 2.08e+06 RFU.

B2: H4H11998P2 (antibody, V domains shown)
VH: QVQLVESGGGLVKPGGSLRLSCAASGFSFSDYYITWIRQAPGKGLEWVSYINTGGYTMYYADSVKGRFTISRDNAKNSLYLQMNNLRAEDTAVYYCTRDRRYNFGLDYWGQGTLVTVSS
VL: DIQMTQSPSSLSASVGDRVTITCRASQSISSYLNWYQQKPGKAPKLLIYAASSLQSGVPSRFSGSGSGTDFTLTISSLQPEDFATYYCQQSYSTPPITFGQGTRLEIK
As to B2, the “100 nM Ag Bound (RU)” value stood at 11 RU in experiment [3], 136 RU in experiment [4], 3 RU in experiment [5] and 111 RU in experiment [6]. Besides, the equilibrium dissociation constant (Kd) was found to be 11.7 µM in experiment [3], 2.58 nM in experiment [4], 174 nM in experiment [5] and 6.5 nM in [6]. Further, the off-rate constant (koff) amounted to 0.0309 s⁻¹ in [3], 0.000453 s⁻¹ in experiment [4], 0.0917 s⁻¹ in experiment [5] and 0.00207 s⁻¹ in experiment [6]. Besides, the on-rate (kon) in experiment [3] stood at 2640 M⁻¹ s⁻¹; in [4], 175000 M⁻¹ s⁻¹; in [5], 528000 M⁻¹ s⁻¹; in experiment [6] it was 318000 M⁻¹ s⁻¹. Moreover, the t1/2 worked out at 0.4 min in [3], 26 min in [4], 0.1 min in experiment [5] and 6 min in experiment [6]. Besides, the entries for the “binding ratio at 3.7 nM vs NIH3T3” value in the experiment with human CD63 [7], in the experiment with human CD63 [9] and in the experiment with human CD63 [10] were 14 fold, 1 fold and 5 fold, respectively. In the experiment with human CD63 [8], this molecule had a concentration for a half-maximal effect (EC50) of 7.4 nM.

What is called Kd is a measure of binding affinity in units of concentration. What is called koff is a measure of how fast the partners let go of each other. As usually defined, the kon is the second-order rate constant of association. For orientation: EC50 means the concentration giving half of the maximal effect.
